± gives the uncertainty stated by the source.

This data set is described as follows: amyloid nucleation score (Sup35N fusion, yeast selection) (log enrichment); library NNK1; higher = more nucleation; inactive = no reads after selection. Put shortly: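 For the nucleation score, DiMSum gave the log enrichment of output over input reads, centred on the mode score of non-aggregating sequences. Psi-negative yeast expressing Sup35N fused to peptides of 20 random codons were induced with 100 μM copper sulfate for 24 hours and grown 7 days at 30°C on medium lacking adenine and uracil. Input and output plasmid inserts were Illumina-sequenced, and sequences with under 100 input reads were excluded.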
MYCGS gave an amyloid nucleation score of -0.279 ± 0.27.

Substance YSLVICNQNSFPNMVDIVLG showed an amyloid nucleation score of 2.53 ± 0.074.

SVPMMSML returned an amyloid nucleation score of 0.019 ± 0.25.

As for SSMLSISVFEWITFRWR, the amyloid nucleation score stood at 0.181 ± 0.58.

As to AYFMVHLLIF, the amyloid nucleation score was determined as 1.34 ± 0.13.

In the case of FNLSVKAY, the amyloid nucleation score was -0.581 ± 1.6.

For FGLCCRSRVFWRWLIKDWKD, the amyloid nucleation score was -0.566 ± 1.9.

In turn, YVNFLGLLDCEL yielded an amyloid nucleation score of -0.028 ± 0.48.

FGKSYRRFFARTKFGKAGGP yielded an amyloid nucleation score of -1.29 ± 1.8.

The substance GYNKHLGNSGSYVHQNGAQF came in with an amyloid nucleation score of 1.06 ± 0.39.

CTREVLWGCHCNSSASNLFS: the amyloid nucleation score was -0.202 ± 0.61.

Turning to AIFFGGIGKVCVKLVLCVRL, the amyloid nucleation score is 0.248 ± 0.27.

For the substance ECQCFDQICEQLNSYRDQFS, the amyloid nucleation score was found to be 0.105 ± 0.97.

Regarding LMDIGPANEKFN, the amyloid nucleation score was -1.18 ± 1.4.

Consider TMSSFDGPSV, for which the amyloid nucleation score is -2.58 ± 1.8.

For MQWPYCGMTFCYTW, the amyloid nucleation score was -0.047 ± 0.57.

Consider FKPEKRLGATG, for which the amyloid nucleation score came out at 0.694 ± 0.45.

With EGNSDCLWVGYGASMTRWVR, the amyloid nucleation score was 0.258 ± 0.88.

Regarding RGVARWRCGNKICNA, the amyloid nucleation score was found to be 0.078 ± 0.47.

NVILKDLQVYPEKAVSINRY registered an amyloid nucleation score of 1.05 ± 0.32.

As for HTESRSSYGYVCPGYNLISF, the amyloid nucleation score came out at 0.2 ± 0.63.

As to CLLLARVVALVGPPSRTSGV, the amyloid nucleation score is -0.121 ± 0.4.

Turning to PCWTNSLLKPPVGIR, the amyloid nucleation score was -0.281 ± 1.1.

VSCGDELVGDRI came in with an amyloid nucleation score of 0.171 ± 0.36.

In turn, CRLESGHYLCSHGRVSGLR returned an amyloid nucleation score of 0.796 ± 0.38.

As to YLFRLVTVFNVVKATLVVTV, the amyloid nucleation score is -0.289 ± 0.92.

QNVACSMH came in with an amyloid nucleation score of 0.093 ± 0.57.

DRPTRLSVIFGRPP: the amyloid nucleation score result is “inactive”.

As to SLYDLTDTAICFAFFYFD, the amyloid nucleation score came out at 7.95 ± 0.082.

The substance YEALQ gave an amyloid nucleation score of -0.703 ± 1.

Take GSRNCIWLFFVVWV: the amyloid nucleation score result is “inactive”.

On to DYESSVGRSQDLAY, for which the amyloid nucleation score was -0.745 ± 2.4.

Consider IVVFSIYYVCSDGGPRVTRR, for which the amyloid nucleation score is 1.43 ± 0.3.

RQLTSVCYKSVDGE: the amyloid nucleation score was 0.516 ± 0.93.

Take SDALTKMDLITLRDKI: the amyloid nucleation score entry is “inactive”.

On to VCLPSGLFINLGVWYAAQHH, for which the amyloid nucleation score worked out at 6.51 ± 0.069.

Take GLPLYVHVAVEVIWL: the amyloid nucleation score is 0.058 ± 0.65.

Turning to LELLMVKILSSLYDIMIFCC, the amyloid nucleation score entry was “inactive”.

Take KHSPSDYPERLHHNFYIERI: the amyloid nucleation score result is “inactive”.

TGGTNGHKASCEVRFTVTER came in with an amyloid nucleation score of 1.08 ± 0.41.

In turn, YVRRSCSSRESYSCNCLYVY returned an amyloid nucleation score of 0.532 ± 0.92.

Consider SKDKGSTLGTSNLGRDGSWK, for which the amyloid nucleation score turned out to be 0.5 ± 0.45.

SWYCGTASLVAKAVADRAGD: the amyloid nucleation score stood at 0.062 ± 0.5.

Substance GVSMFHRFSSHNWMCCWFVG showed an amyloid nucleation score of 7.654 ± 0.064.

For CSCGLSYGLYFE, the amyloid nucleation score was 0.786 ± 0.92.

For AFAFEYCRTSRIFCQGMEWQ, the amyloid nucleation score stood at 1.05 ± 0.6.

In turn, AGCDNMIYMSTWVKWESN gave an amyloid nucleation score of 0.197 ± 0.31.

With IWNSVARFRYSSMGFVVSAV, the amyloid nucleation score is -0.702 ± 1.7.

CSAYGKNTMGSESPVMSMAS: the amyloid nucleation score was 0.368 ± 0.72.

Consider IYVFSALRCTGTEVWYRLVT, for which the amyloid nucleation score is -1.2 ± 1.4.

Regarding SEKGCYYIGSLTGR, the amyloid nucleation score was found to be 0.184 ± 1.2.

In turn, HSCEPVMLVLNMNR registered an amyloid nucleation score of 8.159 ± 0.072.

The substance VFGVKVRDCASANGVFGWSS yielded an amyloid nucleation score of -0.14 ± 1.4.

The substance FGRSVLDRVKVMHVRVVVSV showed an amyloid nucleation score of -0.372 ± 0.63.

As to TFLGLAGSHCLFSFVANSAR, the amyloid nucleation score was determined as 1.24 ± 0.28.

On to FGTFCMGRPYRYYGCNGGFR, for which the amyloid nucleation score came to 0.674 ± 0.35.

Substance SVVNDFVYRL came in with an amyloid nucleation score of -0.588 ± 0.86.
